Measured values reported in publication doi:10.1101/2025.04.29.651185.

Columns and labels:
[1] = target: flotillin-associated rhodopsin from the marine SAG AG-319-B05 Pseudothioglobus (PsFAR) (Pseudothioglobus sp. (SAG AG-319-B05)); test: cryo-EM structure
[2] = target: proteorhodopsin from the marine SAG AG-319-B05 Pseudothioglobus (PsPR) (Pseudothioglobus sp. (SAG AG-319-B05)); test: cryo-EM structure

## flotillin-associated rhodopsin from the marine SAG AG-319-B05 Pseudothioglobus (PsFAR) (natural protein)
[1]
  stoichiometry N: 5

## proteorhodopsin from the marine SAG AG-319-B05 Pseudothioglobus (PsPR) (natural protein)
[2]
  stoichiometry N: 5
